Test results: patent US12291504B2, “Small molecule inhibition of sulfotransferase SULT1A3” (University of Pittsburgh—Of the Commonwealth System of …, priority 2018, dated 2025)

System: Oc1ccc2ccc3cccc4ccc1c2c34
Experiment: purified protein, by the assay type
Conditions: saturating PAPS (500 μM), 25.0 °C
Description: Covalent Tagging of SULT1A3 Cys Constructs. Labeling of the SULT1A3 Cys constructs was performed as described previously (17,18,21). Briefly, 3-maleimido-PROXYL (spin label) or N-cyclohexylmaleimide (diamagnetic control) was added to an enzyme containing solution at 20-fold excess over reactive Cys. Unreacted Cys was monitored using DNTB (17,18,21); reactions were considered complete when >98% of the Cys was labeled. Reaction conditions: SULT1A3 (50 μM, monomer), 3-maleimido-PROXYL or N-cyclohexylmaleimide (1.0 mM), PAP (0.50 mM), KPO4 (50 mM), pH 7.5, 4±2° C. To prepare samples for NMR, reaction mixtures were dialyzed three times against 40 volumes of PAP (0.50 mM), KPO4 (50 mM), pD 7.4, D2O (>95%), 4±2° C.
Initial-Rate Studies. Initial-rate parameters for the labeled or mutant SULT1A3 constructs were determined using a previously described 1-HP assay (25). […] Reactions were monitored via fluorescence change associated with the conversion of 1-HP to 1-HP-S (λex=325 nm, λem=370 nm). Keq for the 1-HP sulfonation reaction is −250. Given the reaction conditions outlined above, ≥99% of 1-HP is converted to 1-HP-S, and ˜0.4% of PAPS is converted to PAP at equilibrium. […] Reaction progress curves were analyzed to obtain initial-rate parameters as described previously (26,27).
Inhibition studies. Inhibition parameters were determined under conditions identical to those described above (see, Initial-Rate Studies) except that [1-HP] was increased to 5.0 μM (˜61×Km) and inhibitor concentration was varied between 0.20-20×Ki. Ki was obtained using a least-squares fit to the following partial inhibition equation (25,28): v=kcat·(Ki+(1/kcat inh)·[I])/(Ki+[I]), where kcat inh is enzyme turnover at saturating substrates and allosteric inhibitor.

SULT1A3 spin-labeled at Cys 116 (Homo sapiens; Q116C)
Km (other: spin label at Cys 116): 87 (3) nM
kcat (other: spin label at Cys 116): 1.83 s⁻¹

SULT1A3 spin-labeled at Cys 198 (Homo sapiens; E198C)
Km (other: spin label at Cys 198): 88 (2) nM
kcat (other: spin label at Cys 198): 1.8 s⁻¹

SULT1A3 spin-labeled at Cys 234 (Homo sapiens; K234C)
Km (other: spin label at Cys 234): 84 (3) nM
kcat (other: spin label at Cys 234): 1.82 s⁻¹
